“Also recorded” adds a separate entry of the source. Primed or numbered codes have the meaning given here. Where no end group is shown, it is not given here. FITC′ = fluorescein isothiocyanate; Ahx = NCCCCCC(=O)O

The target in experiment [1] is T1, PP1γ catalytic domain (residues 7–300)-H6 (mouse, UniProt P63087 7-300).
T1 construct: mouse PP1γ catalytic domain, residues 7-300; no tag cleavage is described; also called PP1 catalytic domain; protein phosphatase 1; source: E. coli T7 Express lysY/Iq, purified (Ni-NTA, SEC)
The experiment is described as follows: fluorescence polarisation; competition: serial dilution of competitor added to a pre-formed complex of 2 nM FITC-GADD34 peptide and 250 nM PP1γ catalytic domain (final); 50 mM HEPES pH 8.0, 500 mM NaCl, 0.05% TWEEN-20; 27 °C. Conditions: both partners purified.

In experiment [2] the target is T1, PP1γ catalytic domain (residues …). In words: ITC; 25 °C; 50 mM HEPES pH 8.0, 500 mM NaCl, 0.5 mM TCEP; 12 x 3 μl injections; peptide or pORF38-NLT titrated into PP1γ catalytic domain; one-site binding model; syringe and cell contents in Table S1. The following applies: both partners purified.
Experiment [3] has the same target. In words: fluorescence polarisation; competition: increasing pUL21 added to a pre-formed complex of 2 nM FITC-GADD34 peptide and 250 nM PP1γ catalytic domain; Tris pH 8.5 in place of HEPES pH 8. The following applies: both partners purified.
Experiment [4] addresses T2, PP1γ catalytic domain : GADD34 peptide pre-formed complex (Mus musculus, UniProt P63087).
T2 construct: mouse PP1γ catalytic domain (residues 7–300)-H6; His6 (C); made in house; host or cells: E. coli T7 Express lysY/Iq (PP1γ); tracer peptide synthesised by GenScript
The experiment is described as follows: Competition fluorescence anisotropy in Tris pH 8.5 buffer. Conditions: 2 nM fluorescent GADD34 peptide + 250 nM PP1γ. Format: binding. The method, then:
Similar competition fluorescence anisotropy experiments with purified full-length pUL21 (Fig. 5E) were performed in a buffer optimized to enhance solubility of the protein (Tris pH 8.5 in place of HEPES pH 8). […] To test whether optimization of the TROPPO sequence to better match a canonical RVxF motif could enhance binding, we generated, expressed and purified a pUL21-H6 mutant where residues A237 and V239 had been substituted for valine and phenylalanine, respectively (pUL21-RVxF, Fig. 5E).
Bacterial expression plasmids encoding the mouse PP1γ catalytic domain (residues 7–300)-H6 and pUL21-H6, and mammalian expression vectors encoding pUL21(FV242AA)-GFP, pORF38-GFP and pORF38(FV255AA)-GFP, were described previously ([23]). We note that the mouse and human PP1γ catalytic domains share 100% amino acid identity. pORF38-NLT-H6 was generated by sub-cloning residues 1 to 263 of ORF38 into the vector pOPTnH ([52]). pUL21-RVxF-H6 was generated by inserting the mutations A237V and V239F into pUL21-H6 by QuikChange site-directed mutagenesis. Human PP1α was cloned from HeLa cell cDNA into a vector derived from pF5K (Promega) with an N-terminal Myc epitope tag via restriction-based cloning, and point mutations were introduced into Myc-PP1α by QuikChange mutagenesis. […]
Proteins were expressed using E. coli T7 Express lysY/I^q cells (New England Biolabs) grown in 2 × TY medium at 37 °C to OD600 0.8 to 1.2 before cooling to 22 °C and induction of protein expression using 0.4 mM IPTG. […] Fractions were analysed by SDS-PAGE and those containing the desired protein were pooled, concentrated using centrifugal concentrators (Millipore) and stored at 4 °C (short-term) or snap-frozen in liquid nitrogen for long-term storage at −70 °C.
Fluorescence anisotropy was measured using a SpectraMax i3 microplate reader (Molecular Devices) with wavelengths 485 ± 20 nm (excitation) and 535 ± 25 nm (emission). […]

Experiment [5] deals with T1, PP1γ catalytic domain (residues …). The experiment is described as follows: fluorescence polarisation; direct titration: 2 nM FITC-GADD34 peptide with a serial dilution of PP1γ catalytic domain; 50 mM HEPES pH 8.0, 500 mM NaCl, 0.05% TWEEN-20; 27 °C; one-site binding model. Conditions: both partners purified.
Experiment [6] shares this target. The experiment is described as follows: fluorescence polarisation; direct titration of PP1γ catalytic domain against FITC-GADD34 peptide in the buffer optimised for pUL21 (Tris pH 8.5 in place of HEPES pH 8). Conditions: both partners purified.

T1 sequence (P63087 7-300): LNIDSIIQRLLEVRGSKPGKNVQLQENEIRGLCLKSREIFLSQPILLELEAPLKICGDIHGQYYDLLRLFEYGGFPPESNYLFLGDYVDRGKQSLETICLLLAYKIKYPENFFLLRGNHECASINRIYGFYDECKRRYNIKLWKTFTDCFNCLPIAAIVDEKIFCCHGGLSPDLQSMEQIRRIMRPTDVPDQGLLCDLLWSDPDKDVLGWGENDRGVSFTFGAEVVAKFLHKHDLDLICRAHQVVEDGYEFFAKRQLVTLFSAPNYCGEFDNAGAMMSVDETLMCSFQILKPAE
T2 sequence (P63087 7-300, one chain of several): as the sequence (P63087 7-300) above

B1: pORF38-NLT-H6 (domain or fragment)
chain: MEFPYHSTVSYNGVTFYFNERATRAYFICGGCLISIPRKHGGEIAKFGHVVRGVGPGDRSVASYVRSELNRTGKTWAVSSNNNCVFLDRVALLAAGSGAVDRDLCGTFDVEVEDPTLADYLVSLPVTHLTLVAGVDVTRENKLKLFPTPTAINTTNGFMYVPNEASFSLVYMRMLELPESLQELVSGLFDGTPEIRDALNGSNDDEKTSIIVSRRAADVVTEDVKADDVPISGEPYSEKQPRRRKKSDHITLSNFVQIRTIPR
notes: VZV pORF38 residues 1-263: N-terminal domain plus linker up to the end of the TROPPO motif (NLT region); Sub-cloned into the vector pOPTnH; also called pOPF38-NLT; source: E. coli T7 Express lysY/Iq, purified (Ni-NTA, SEC); not shown: His6, C-terminal, kept
On to B1, for which, in experiment [1], the IC50 was 0.417 µM. In addition, in experiment [2], the dissociation constant (Kd) worked out at 0.497 µM and the “stoichiometry N” value came out at 1.

B2: pUL21-RVxF-H6 (natural protein)
chain: MELSYATTMHYRDVVFYVTTDRNRAYFVCGGCVYSVGRPCASQPGEIAKFGLVVRGTGPDDRVVANYVRSELRQRGLQDVRPIGEDEVFLDSVCLLNPNVSSELDVINTNDVEVLDECLAEYCTSLRTSPGVLISGLRVRAQDRIIELFEHPTIVNVSSHFVYTPSPYVFALAQAHLPRLPSSLEALVSGLFDGIPAPRQPLDAHNPRTDVVITGRRAPRPIAGSGAGSGGAGAKRVTFSEFVQVKHIDRVGPAGVSPAPPPNNTDSSSLVPGAQDSAPPGPTLRELWWVFYAADRALEEPRADSGLTREEVRAVRGFREQAWKLFGSAGAPRAFIGAALGLSPLQKLAVYYYIIHRERRLSPFPALVRLVGRYTQRHGLYVPRPDDPVLADAINGLFRDALAAGTTAEQLLMFDLLPPKDVPVGSDVQADSTALLRFIESQRLAVPGGVISPEHVAYLGAFLSVLYAGRGRMSAATHTARLTGVTSLVLAVGDVDRLSAFDRGAAGAASRTRAAGYLDVLLTVRLARSQHGQSV
notes: methods, results and legend print V239F; also called pUL21 A237V + V239F (RVxF) mutant; source: E. coli T7 Express lysY/Iq, purified (Ni-NTA, SEC); not shown: His6, C-terminal, kept
In the case of B2, the half-maximal inhibitory concentration (IC50) in experiment [3] is 0.337 µM.

B3: pUL21-RVxF: pUL21-H6 with mutations A237V and V239F (protein)
chain: MELSYATTMHYRDVVFYVTTDRNRAYFVCGGCVYSVGRPCASQPGEIAKFGLVVRGTGPDDRVVANYVRSELRQRGLQDVRPIGEDEVFLDSVCLLNPNVSSELDVINTNDVEVLDECLAEYCTSLRTSPGVLISGLRVRAQDRIIELFEHPTIVNVSSHFVYTPSPYVFALAQAHLPRLPSSLEALVSGLFDGIPAPRQPLDAHNPRTDVVITGRRAPRPIAGSGAGSGGAGAKRVTFSEFVQVKHIDRVGPAGVSPAPPPNNTDSSSLVPGAQDSAPPGPTLRELWWVFYAADRALEEPRADSGLTREEVRAVRGFREQAWKLFGSAGAPRAFIGAALGLSPLQKLAVYYYIIHRERRLSPFPALVRLVGRYTQRHGLYVPRPDDPVLADAINGLFRDALAAGTTAEQLLMFDLLPPKDVPVGSDVQADSTALLRFIESQRLAVPGGVISPEHVAYLGAFLSVLYAGRGRMSAATHTARLTGVTSLVLAVGDVDRLSAFDRGAAGAASRTRAAGYLDVLLTVRLARSQHGQSV
modifications: left off: His6, C-terminal, kept
notes: pUL21-H6 with mutations A237V and V239F
For the molecule B3, the “Competition with GADD34 peptide for PP1 binding” value in experiment [4] is “competes with the GADD34 peptide for binding to the PP1 hydrophobic groove; also recorded: the ability to compete with the GADD34 peptide for PP1 binding”.

B4: Full-length pUL21: purified full-length HSV-1 pUL21 (protein)
chain: MELSYATTMHYRDVVFYVTTDRNRAYFVCGGCVYSVGRPCASQPGEIAKFGLVVRGTGPDDRVVANYVRSELRQRGLQDVRPIGEDEVFLDSVCLLNPNVSSELDVINTNDVEVLDECLAEYCTSLRTSPGVLISGLRVRAQDRIIELFEHPTIVNVSSHFVYTPSPYVFALAQAHLPRLPSSLEALVSGLFDGIPAPRQPLDAHNPRTDVVITGRRAPRPIAGSGAGSGGAGAKRATVSEFVQVKHIDRVGPAGVSPAPPPNNTDSSSLVPGAQDSAPPGPTLRELWWVFYAADRALEEPRADSGLTREEVRAVRGFREQAWKLFGSAGAPRAFIGAALGLSPLQKLAVYYYIIHRERRLSPFPALVRLVGRYTQRHGLYVPRPDDPVLADAINGLFRDALAAGTTAEQLLMFDLLPPKDVPVGSDVQADSTALLRFIESQRLAVPGGVISPEHVAYLGAFLSVLYAGRGRMSAATHTARLTGVTSLVLAVGDVDRLSAFDRGAAGAASRTRAAGYLDVLLTVRLARSQHGQSV
modifications: left off: His6, C-terminal, kept
notes: purified full-length HSV-1 pUL21
Consider B4, for which the “Competition with GADD34 peptide for PP1 binding” value in experiment [4] was “unable to out-compete GADD34 for binding to PP1”; in experiment [4] (listed as wild-type pUL21) it was “cannot displace a GADD34 RVxF- and ϕϕ[xF]-containing peptide from PP1”.

B5: GADD34 RVxF+ϕϕ[xF] peptide (residues 552–568), FITC-labelled (peptide)
peptide: {FITC′-Ahx}-KARKVRFSEKVTVHFLA
notes: GADD34 (PP1 regulatory subunit 15A), residues 552-568, RVxF and ϕϕ[xF] motifs; also called fluorescent GADD34 peptide; GADD34 peptide; source: synthetic peptide (GenScript, >95% purity)
As to B5, the values for the Kd in experiment [5] and in experiment [6] were 0.144 µM and 0.055 µM, respectively.

Source of the values: PMC12723162, “Alphaherpesvirus pUL21 homologs use non-canonical sequences to compete with cellular adaptors for protein phosphatase 1 binding” (The Journal of Biological Chemistry, 2025).
